Test results taken from the supplement of paper PMC7125110.
± gives the standard error. Variants at the floor of the assay were thinned out.

B1: glmS ribozyme (parent)
chain: AUAAAAGCGCCAGAACUACAGAAAUGUAGUUGACGAGGAGGAGGUUUAUCGAAUUUUCGGCGGAUGCCUCCAAA

Assays:
Conditions in all cases: with glucosamine-6-phosphate
glucosamine-6-phosphate [1] = variants of: B1; experiment: self-cleavage kobs at 40 uM GlcN6P; higher = faster cleavage; RNA array
Outline: (§1)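 Barcoded glmS ribozyme variants on sequenced MiSeq chips were transcribed in situ by E. coli RNA polymerase and tracked through a hybridised Cy3 probe at 37 °C. Glucosamine-6-phosphate (40 μM to 10 mM) in HEPES/KCl/Mg(OAc)2 buffer was flowed in, and tiles were imaged over ~14 h. Signals were normalised to baseline and to non-cleaving reference variants; per-tile medians were fit to one- or two-exponential decays to give kobs. kcat and KM came from weighted Michaelis–Menten fits across concentrations.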

glucosamine-6-phosphate [2] = variants of: B1; experiment: self-cleavage kobs at 2500 uM GlcN6P; higher = faster cleavage; RNA array
Outline: as §1

glucosamine-6-phosphate [3] = variants of: B1; experiment: self-cleavage kobs at 10000 uM GlcN6P; higher = faster cleavage; RNA array
Outline: as §1

glucosamine-6-phosphate [4] = variants of: B1; experiment: self-cleavage kobs at 640 uM GlcN6P; higher = faster cleavage; RNA array
Outline: as §1

glucosamine-6-phosphate [5] = variants of: B1; experiment: self-cleavage kobs at 160 uM GlcN6P; higher = faster cleavage; RNA array
Outline: as §1

Row | Variant | self-cleavage kobs at 40 uM GlcN6P (glucosamine-6-phosphate [1]) | self-cleavage kobs at 2500 uM GlcN6P (glucosamine-6-phosphate [2]) | self-cleavage kobs at 10000 uM GlcN6P (glucosamine-6-phosphate [3]) | self-cleavage kobs at 640 uM GlcN6P (glucosamine-6-phosphate [4]) | self-cleavage kobs at 160 uM GlcN6P (glucosamine-6-phosphate [5])
1 | A15G U47A | 0.000718 ± 0.00011 s⁻¹ | 0.0116 ± 0.0042 s⁻¹ | 0.03 ± 0.0073 s⁻¹ |  | 
2 | A33C G41A A42C G63C C67U | < 1e-05 s⁻¹ | < 1e-05 s⁻¹ | < 1e-05 s⁻¹ |  | 
3 | G60A A64C | < 1e-05 s⁻¹ |  |  | < 1e-05 s⁻¹ | 
4 | C10A G60A | < 1e-05 s⁻¹ | < 1e-05 s⁻¹ |  | < 1e-05 s⁻¹ | < 1e-05 s⁻¹
5 | U46A U57G | < 1e-05 s⁻¹ |  |  |  | < 1e-05 s⁻¹
6 | C8A A15U A36G | < 1e-05 s⁻¹ |  |  |  | 
7 | G29C G37U G63U | < 1e-05 s⁻¹ |  |  |  | 
8 | U49A C67A U69C | < 1e-05 s⁻¹ |  |  |  | 
9 | G38U G41C | < 1e-05 s⁻¹ | < 1e-05 s⁻¹ | < 1e-05 s⁻¹ | < 1e-05 s⁻¹ | < 1e-05 s⁻¹
10 | G7U C58A C67G C70U | 9.59e-05 ± 3.4e-05 s⁻¹ |  |  |  | 
11 | A15G G32C G41A G60A C71U | < 1e-05 s⁻¹ |  |  |  | 
12 | U69A | 0.000341 ± 7.7e-05 s⁻¹ | 0.00219 ± 0.0004 s⁻¹ | 0.000299 ± 4.6e-05 s⁻¹ | 0.000282 ± 3.1e-05 s⁻¹ | 0.000534 ± 0.00018 s⁻¹
13 | A15U G59C | < 1e-05 s⁻¹ | < 1e-05 s⁻¹ | < 1e-05 s⁻¹ | < 1e-05 s⁻¹ | < 1e-05 s⁻¹
14 | U31A U55G | 0.000331 ± 5.6e-05 s⁻¹ | 0.00546 ± 0.0012 s⁻¹ | 0.0123 ± 0.0044 s⁻¹ | 0.0036 ± 0.00064 s⁻¹ | 0.000659 ± 9.3e-05 s⁻¹
15 | U31C U45A G60A C67A | < 1e-05 s⁻¹ |  |  |  | < 1e-05 s⁻¹
16 | A12C A33G U65C | < 1e-05 s⁻¹ |  |  |  | 
17 | G7C C50U | < 1e-05 s⁻¹ | < 1e-05 s⁻¹ |  | < 1e-05 s⁻¹ | < 1e-05 s⁻¹
18 | C34G G41C | < 1e-05 s⁻¹ | < 1e-05 s⁻¹ | < 1e-05 s⁻¹ |  | < 1e-05 s⁻¹
19 | C8G A15C | < 1e-05 s⁻¹ | < 1e-05 s⁻¹ | < 1e-05 s⁻¹ | < 1e-05 s⁻¹ | < 1e-05 s⁻¹
20 | C8A G29C G35A C67G | < 1e-05 s⁻¹ |  |  |  | 
21 | A48C U69G | < 1e-05 s⁻¹ |  | < 1e-05 s⁻¹ |  | < 1e-05 s⁻¹
22 | C8A C11G G38U G60A | < 1e-05 s⁻¹ |  |  | < 1e-05 s⁻¹ | < 1e-05 s⁻¹

Row | Variant | self-cleavage kobs at 40 uM GlcN6P (glucosamine-6-phosphate [1]) | self-cleavage kobs at 2500 uM GlcN6P (glucosamine-6-phosphate [2]) | self-cleavage kobs at 10000 uM GlcN6P (glucosamine-6-phosphate [3]) | self-cleavage kobs at 640 uM GlcN6P (glucosamine-6-phosphate [4]) | self-cleavage kobs at 160 uM GlcN6P (glucosamine-6-phosphate [5])
23 | U49C G66A | < 1e-05 s⁻¹ |  | < 1e-05 s⁻¹ |  | 
24 | A42G U55G G62C | < 1e-05 s⁻¹ | < 1e-05 s⁻¹ | < 1e-05 s⁻¹ |  | < 1e-05 s⁻¹
25 | C34A U47G U54G G59U C68G | 0.000664 ± 0.0002 s⁻¹ |  | 0.000474 ± 0.00012 s⁻¹ |  | 
26 | A39U U65C | 8.42e-05 ± 1.7e-05 s⁻¹ | 0.00149 ± 0.00024 s⁻¹ |  | 0.00114 ± 0.00015 s⁻¹ | 0.000124 ± 2.7e-05 s⁻¹
27 | G9A C71G | < 1e-05 s⁻¹ | < 1e-05 s⁻¹ | < 1e-05 s⁻¹ | < 1e-05 s⁻¹ | < 1e-05 s⁻¹
28 | G13C U46G | < 1e-05 s⁻¹ |  |  | < 1e-05 s⁻¹ | < 1e-05 s⁻¹
29 | A14G U54G G66A | 0.000476 ± 0.00011 s⁻¹ |  | 0.0163 ± 0.0061 s⁻¹ |  | 
30 | A33G U45C | < 1e-05 s⁻¹ | < 1e-05 s⁻¹ |  | < 1e-05 s⁻¹ | 
31 | C8G C71U | < 1e-05 s⁻¹ | < 1e-05 s⁻¹ | < 1e-05 s⁻¹ | < 1e-05 s⁻¹ | < 1e-05 s⁻¹
32 | C16A C34A G37U C50A C61A | 0.000276 ± 6.5e-05 s⁻¹ |  | 0.000316 ± 6.4e-05 s⁻¹ |  | 
33 | G9C G13U G41U G63U | < 1e-05 s⁻¹ |  | < 1e-05 s⁻¹ |  | 
34 | G41C G43C | < 1e-05 s⁻¹ |  | < 1e-05 s⁻¹ | < 1e-05 s⁻¹ | < 1e-05 s⁻¹
35 | G40C A48C A52U | < 1e-05 s⁻¹ | < 1e-05 s⁻¹ |  | < 1e-05 s⁻¹ | 
36 | C16U G29A G37C | < 1e-05 s⁻¹ |  | 5.01e-05 ± 1.6e-05 s⁻¹ |  | 
37 | U55G U65A C67A | 6.53e-05 ± 1.8e-05 s⁻¹ |  | 9.95e-05 ± 3e-05 s⁻¹ |  | 
38 | U45C G63U | < 1e-05 s⁻¹ | < 1e-05 s⁻¹ | < 1e-05 s⁻¹ | < 1e-05 s⁻¹ | < 1e-05 s⁻¹
39 | C8G A39C | < 1e-05 s⁻¹ | < 1e-05 s⁻¹ | < 1e-05 s⁻¹ | < 1e-05 s⁻¹ | < 1e-05 s⁻¹
40 | A48U C61U | < 1e-05 s⁻¹ |  |  | < 1e-05 s⁻¹ | 
41 | G9U A33G | < 1e-05 s⁻¹ | < 1e-05 s⁻¹ |  | < 1e-05 s⁻¹ | < 1e-05 s⁻¹
42 | C8G G37C C67G | < 1e-05 s⁻¹ | < 1e-05 s⁻¹ | < 1e-05 s⁻¹ |  | 
43 | G9A A33C | < 1e-05 s⁻¹ | < 1e-05 s⁻¹ | < 1e-05 s⁻¹ | < 1e-05 s⁻¹ | < 1e-05 s⁻¹
44 | G37C G41U G63C | < 1e-05 s⁻¹ |  |  |  | 
